# Reference: patent publication US20100239676A1, “Stable Aerosolizable Suspensions of Proteins in Ethanol” (priority 2000, published 2010)
# Experiment: Stabilization of insulin suspension in 100% ethanol, activity retained by reversed phase HPLC
# Assay type: physicochemical
# Details: pH 7.4
# Protocol: The conical tubes were then sealed with punctured parafilm, and frozen overnight at ˜−15° C. to −20° C. […] This process was started two or three days prior to the start of the experiment. […] For each sample, there were four (4) time-points prepared. […] The diluted samples were then analyzed by reversed phase HPLC method using standard techniques known to the art. The other time-points were sealed with parafilm. Four (4) different conditions were tested: (i) & (ii) samples were maintained at 37° C. with and without shaking; (iii) samples were maintained at 40° C. with shaking; and (iv) samples were maintained at room temperature with no shaking. A Labline environmental incubator/shaker was used at 37° C. and at 40° C. while shaking at 220 rpm. […] Inversion was used to gently mix.
# Percent activity retained was determined by high-performance liquid chromatography (HPLC).
substance,measurement,setting,value
"Insulin: Lyophilized human insulin, supplied from Roche Biochemical Co., suspended in 200 proof ethanol",Activity Retained (%),"2.0 months, 20 °C, shaking NA",90%
same,Activity Retained (%),"2.0 months, 40 °C, shaking 220 rpm",55%
same,Activity Retained (%),"2.5 months, 37 °C, shaking NA",93%
